{
  "source": "patent US20160264664A1",
  "binders": {"B1": {"name": "13A7-35GS-13A7 (VHH)", "chain": "EVQLVESGGGLVQPGESLRLSCTASRFMLDYYDIGWFRQAPGKEREGVSCRFTNDGSTAYADSVKGRFTISRDIVKHTVYLQMNSLQPEDTAVYYCAAGPLTKRRQCVPGDFSMDFWGEGTLVTVSSGGGGSGGGGSGGGGSGGGGSGGGGSGGGGSGGGGSEVQLVESGGGLVQPGESLRLSCTASRFMLDYYDIGWFRQAPGKEREGVSCRFTNDGSTAYADSVKGRFTISRDIVKHTVYLQMNSLQPEDTAVYYCAAGPLTKRRQCVPGDFSMDFWGEGTLVTVSS"}, "B2": {"name": "HBSAGPMP2E7 (VHH)", "VHH": "EVQLVESGGGLLQAGGSLRLSCAASERAFIIYGKAWFRQAPGKEREFVAGINWNGGDLHYADSVKGRFTISRDNTNNVVYLQMNSLKSEDTAVYYCAVRRGTAYETDVSSYEWGTQVTVSS"}, "B3": {"name": "8G11-35GS-8G11 (VHH)", "chain": "EVQLVESGGGLVQAGGSLRLSCAASGNFFRVNTMAWYRQAPGKQRELVADITRGDRTNYADTVNGRFTISRDNVRNTVYLQMNGLRPEDTAAYYCYAVIELGVLEPRDYWGQGTQVTVSSGGGGSGGGGSGGGGSGGGGSGGGGSGGGGSGGGGSEVQLVESGGGLVQAGGSLRLSCAASGNFFRVNTMAWYRQAPGKQRELVADITRGDRTNYADTVNGRFTISRDNVRNTVYLQMNGLRPEDTAAYYCYAVIELGVLEPRDYWGQGTQVTVSS"}, "B4": {"name": "14D5-35GS-14D5 (VHH)", "chain": "EVQLVESGGGLVQAGGSLRLSCAASGSPISSYAMGWYRQAPGKPRELVARIYTGGTAWYEDSVKGRFTISRDNAQNTVYLQMNSLKSEDTAVYYCHGRVRYDYWGQGTQVTVSSGGGGSGGGGSGGGGSGGGGSGGGGSGGGGSGGGGSEVQLVESGGGLVQAGGSLRLSCAASGSPISSYAMGWYRQAPGKPRELVARIYTGGTAWYEDSVKGRFTISRDNAQNTVYLQMNSLKSEDTAVYYCHGRVRYDYWGQGTQVTVSS"}, "B5": {"name": "HBSAGPMP2E12 (VHH)", "VHH": "EVQLVESGGGLVQAGGSLRLSCAASGRSISEYAMGWFRQAPGQEREFVASISTSGGSTTYADSVKGRFIISRDNAKNTVYLQMNSLKPEDTAVYYCARYNGWMYYAGTMGVHFGQGTQVTVSS"}},
  "key": {"[1]": {"target": "T1, mouse P2X7 (mouse) (UniProt Q9Z1M0)", "T1 sequence": "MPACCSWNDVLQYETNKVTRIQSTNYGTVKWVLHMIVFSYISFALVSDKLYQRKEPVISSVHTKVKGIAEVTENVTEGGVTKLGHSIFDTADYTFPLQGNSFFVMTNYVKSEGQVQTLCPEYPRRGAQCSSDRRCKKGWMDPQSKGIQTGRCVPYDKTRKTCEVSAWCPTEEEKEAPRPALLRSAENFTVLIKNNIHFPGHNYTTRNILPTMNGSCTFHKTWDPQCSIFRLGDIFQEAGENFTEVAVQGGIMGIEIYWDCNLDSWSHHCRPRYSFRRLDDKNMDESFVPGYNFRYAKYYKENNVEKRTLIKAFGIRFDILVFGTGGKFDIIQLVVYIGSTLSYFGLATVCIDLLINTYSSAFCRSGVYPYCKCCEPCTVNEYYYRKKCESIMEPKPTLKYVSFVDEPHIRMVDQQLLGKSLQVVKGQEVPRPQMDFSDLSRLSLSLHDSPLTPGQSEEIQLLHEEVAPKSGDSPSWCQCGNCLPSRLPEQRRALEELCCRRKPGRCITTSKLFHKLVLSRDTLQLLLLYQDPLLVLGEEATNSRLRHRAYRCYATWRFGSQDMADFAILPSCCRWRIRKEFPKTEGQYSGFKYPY", "experiment": "cell-based or functional assay"}, "[2]": {"target": "plasma-derived HBsAg particles (Biodesign) (hepatitis B virus)", "experiment": "SPR (Biacore), periplasmic extract over immobilised plasma-derived HBsAg particles, 1:1 dissociation model"}},
  "data": [
    {"binder": "B1", "values": [
      {"measurement": "IC50, CD62L shedding at 20 µM NAD", "setting": "[1]", "value": 300, "unit": "pM"},
      {"measurement": "IC50, CD62L shedding at 100 µM ATP", "setting": "[1]", "value": 100, "unit": "pM"},
      {"measurement": "potency increase vs. monovalent 13A7 (ATP)", "setting": "[1]", "value": 9, "unit": "fold"},
      {"measurement": "potency increase vs. monovalent 13A7 (NAD)", "setting": "[1]", "value": 23, "unit": "fold"}
    ]},
    {"binder": "B2", "values": [
      {"measurement": "koff", "setting": "[2]", "value": 0.00088, "unit": "s⁻¹"}
    ]},
    {"binder": "B3", "values": [
      {"measurement": "IC50, CD62L shedding at 20 µM NAD", "setting": "[1]", "value": 520, "unit": "pM"},
      {"measurement": "IC50, CD62L shedding at 100 µM ATP", "setting": "[1]", "value": 200, "unit": "pM"},
      {"measurement": "potency increase vs. monovalent 8G11 (ATP)", "setting": "[1]", "value": 84, "unit": "fold"},
      {"measurement": "potency increase vs. monovalent 8G11 (NAD)", "setting": "[1]", "value": 146, "unit": "fold"}
    ]},
    {"binder": "B4", "values": [
      {"measurement": "EC50, enhancement of CD62L-ectodomain shedding at 1.5 µM NAD", "setting": "[1]", "value": 60, "unit": "pM"},
      {"measurement": "EC50, enhancement of CD62L-ectodomain shedding at 33 µM ATP", "setting": "[1]", "value": 100, "unit": "pM"},
      {"measurement": "increase in potency vs. monovalent 14D5 (ATP-induced shedding)", "setting": "[1]", "value": 220, "unit": "fold"},
      {"measurement": "increase in potency vs. monovalent 14D5 (NAD-induced shedding)", "setting": "[1]", "value": 40, "unit": "fold"}
    ]},
    {"binder": "B5", "values": [
      {"measurement": "koff", "setting": "[2]", "value": 0.0013, "unit": "s⁻¹"}
    ]}
  ]
}
